Here are results for 11 molecules from paper PMC6995573 (2019).

To fix the notation:
B1: AZ2 (natural protein)
chain: MINTQDSSILPLSNCPQLQCCRHIVPGPLWCSDAPHPLSKIPGGRGGGRDPSLSALIYKDEKLTVTQDLPVNDGKPHIVHFQYEVTEVKVSSWDAVLSSQSLFVEIPDGLLADGSKEGLLALLEFAEEKMKVNYVFICFRKGREDRAPLLKTFSFLGFEIVRPGHPCVPSRPDVMFMVYPLDQNLSDED
B2: AZ3_WT (natural protein)
chain: MPCKRCRPSVYSLSYIKRGKTRNYLYPIWSPYAYYLYCYKYRITLREKMLPRCYKSITYKEEEDLTLQPRSCLQCSESLVGLQEGKSTEQGNHDQLKELYSAGNLTVLATDPLLHQDPVQLDFHFRLTSQTSAHWHGLLCDRRLFLDIPYQALDQGNRESLTATLEYVEEKTNVDSVFVNFQNDRNDRGALLRAFSYMGFEVVRPDHPALPPLDNVIFMVYPLERDVGHLPSEPP
B3: AZ_(95–228)_R121A (domain or fragment)
chain: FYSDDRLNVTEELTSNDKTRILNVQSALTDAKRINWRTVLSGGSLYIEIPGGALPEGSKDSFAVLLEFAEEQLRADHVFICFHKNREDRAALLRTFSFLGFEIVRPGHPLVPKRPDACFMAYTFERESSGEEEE
B4: AZ_(95–228)_D111A (domain or fragment)
chain: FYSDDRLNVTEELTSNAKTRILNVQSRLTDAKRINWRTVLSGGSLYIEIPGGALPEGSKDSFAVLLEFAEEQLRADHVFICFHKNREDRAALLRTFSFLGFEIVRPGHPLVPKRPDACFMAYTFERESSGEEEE
B5: AZ_(95–228)_E105A (domain or fragment)
chain: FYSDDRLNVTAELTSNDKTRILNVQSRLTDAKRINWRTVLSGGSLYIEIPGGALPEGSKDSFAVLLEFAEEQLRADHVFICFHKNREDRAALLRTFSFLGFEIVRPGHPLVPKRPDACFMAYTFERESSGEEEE
B6: AZ_(95–228)_R100A (domain or fragment)
chain: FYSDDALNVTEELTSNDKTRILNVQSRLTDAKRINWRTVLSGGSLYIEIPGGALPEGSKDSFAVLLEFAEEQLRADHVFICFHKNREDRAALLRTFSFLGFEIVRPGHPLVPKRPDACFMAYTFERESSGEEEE
B7: AZ_(95–228)_D98A (domain or fragment)
chain: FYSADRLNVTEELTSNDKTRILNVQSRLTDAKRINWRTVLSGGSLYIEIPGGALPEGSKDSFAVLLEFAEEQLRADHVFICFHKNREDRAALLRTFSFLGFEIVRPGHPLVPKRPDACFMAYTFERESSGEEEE
B8: AZ_(95–228)_E106A (domain or fragment)
chain: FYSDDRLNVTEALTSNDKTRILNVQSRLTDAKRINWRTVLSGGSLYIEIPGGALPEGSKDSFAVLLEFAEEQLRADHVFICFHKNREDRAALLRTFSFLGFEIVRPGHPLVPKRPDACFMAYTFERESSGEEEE
B9: AZ_(95–228)_D124A (domain or fragment)
chain: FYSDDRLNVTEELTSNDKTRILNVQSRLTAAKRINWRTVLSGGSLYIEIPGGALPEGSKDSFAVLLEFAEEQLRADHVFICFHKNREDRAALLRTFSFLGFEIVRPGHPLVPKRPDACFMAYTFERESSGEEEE
B10: AZ_(95–228)_D99A (domain or fragment)
chain: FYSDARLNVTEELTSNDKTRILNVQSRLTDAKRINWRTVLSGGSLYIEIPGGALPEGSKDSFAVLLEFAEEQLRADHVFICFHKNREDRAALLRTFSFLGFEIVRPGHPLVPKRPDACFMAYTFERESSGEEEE
B11: AZ_(95–228)_R114A (domain or fragment)
chain: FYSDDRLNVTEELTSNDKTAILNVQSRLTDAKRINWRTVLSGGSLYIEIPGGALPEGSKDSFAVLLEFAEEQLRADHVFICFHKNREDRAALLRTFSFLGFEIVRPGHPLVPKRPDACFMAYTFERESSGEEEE

For the first experiment, the target named is T1, Human ornithine decarboxylase (human, UniProt P11926 2-421).
T1 chain: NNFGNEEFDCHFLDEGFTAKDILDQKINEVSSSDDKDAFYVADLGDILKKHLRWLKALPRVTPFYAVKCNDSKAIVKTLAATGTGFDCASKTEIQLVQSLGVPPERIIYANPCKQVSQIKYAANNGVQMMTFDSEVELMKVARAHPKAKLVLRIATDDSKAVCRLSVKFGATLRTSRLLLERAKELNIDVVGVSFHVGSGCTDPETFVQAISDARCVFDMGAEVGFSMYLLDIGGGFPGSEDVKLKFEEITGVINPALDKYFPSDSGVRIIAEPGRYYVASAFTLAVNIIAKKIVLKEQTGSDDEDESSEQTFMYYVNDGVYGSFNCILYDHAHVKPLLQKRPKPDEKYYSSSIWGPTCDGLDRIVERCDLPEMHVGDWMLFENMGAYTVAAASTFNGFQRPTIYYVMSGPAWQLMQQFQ
The experiment can be described thus: inhibition of ODC enzyme activity.
B1: the IC50 (in general, the midpoint of a concentration-inhibition curve) is 190 nM.
The molecule B2 registered an IC50 of 840 nM.

For another experiment, the target named is T1, Human ornithine decarboxylase. Nature of the experiment: inhibition of ODC enzyme activity. The source holds these as a separate data set.
On to B3, for which the IC50 is 160 nM.
On the same count and under the same terms, to B4 belongs 190 nM; to B5, 190 nM; to B6, 190 nM.
As for B7, the IC50 came out at 180 nM.
On the same count and under the same terms, to B8 belongs 200 nM; to B9, 170 nM.
Same read-out and setting: to B10 belongs 170 nM; to B11, 160 nM.

A further experiment has the same target. The experiment can be described thus: AUC.
On to B1, for which the Kd (in general, a measure of binding affinity in units of concentration) was 280 nM.
B2 registered a Kd of 590 nM.
